In patent US20130109581A1, “POSITIVELY CHARGED SPECIES AS BINDING REAGENTS IN THE SEPARATION OF PROTEIN AGGREGATES FROM MONOMERS” (priority 2009, published 2013):
Where “and” joins values, the source holds several entries; their conditions need not be identical. Equal entries are not always repeated.

Experiments:
[1] = biological target: T1, Abeta 1-42 globulomer (Homo sapiens, UniProt P05067); test: Globulomer capture assay in CSF (Example 6); type: binding; conditions: 4 ng/mL globulomer spiked; FIG. 29
T1 construct: beta amyloid (1-42) was monomerized with incubation in hexafluoroisopropanol

[2] = biological target: T2, oligomeric beta amyloid 1-42 (globulomer) (Homo sapiens, UniProt P05067); test: Misfolded Protein Assay: capture of globulomer spiked into CSF (Example 2); type: binding; conditions: globulomer-spiked CSF vs normal CSF; reagent on Dynal M270 beads
T2 construct: beta amyloid (1-42) was monomerized with incubation in hexafluoroisopropanol
Experimental: To assess the ability of these reagents to capture protein aggregates, the previously described Misfolded Protein Assay or MPA (Lau et al., 2007, PNAS, 104: 11551) was used (FIG. 3). In this assay, the capture reagent of interest is attached to beads which are incubated with a sample of interest containing a mixture of normal monomeric and aggregated proteins to allow for capture and then washed to remove unbound material. After this enrichment step, an elution buffer is used to dissociate the captured material from the beads as well as to denature any aggregates. The eluted material is then applied to a sandwich ELISA that is specific for the protein of interest. Strong aggregate-binding reagents acting as effective capture reagents show a high signal from the sample containing a mixture of monomers and aggregates, but not from the control sample, which contains only physiologic levels of monomeric protein.
Beads displaying carboxylic acids were treated with EDC and BMPH to create maleimide-displaying beads, to which thiolated peptides (or other thiolated organic molecules) were added through a Michael addition reaction. Dynal M270 magnetized beads (30 mg/mL bead) displaying carboxylic acids were vortexed and placed into a 15 ml falcon tube. The tube was placed into a magnet, and the supernatant removed. The beads were washed 2 times with 0.1 M MES buffer, pH 5, and then the washing buffer was removed. The coupling solution (33 mM BMPH, 130 mM EDC in MES buffer) was added, and the tube was rocked for 30 minutes at room temperature. After washing in 1×MES, 1× Tris, pH 7.5, the beads were quenched with Tris buffer (50 mM Tris buffer, pH 7.5) for 15 minutes. The beads were then washed 2 times in phosphate buffer and added to 5 mM thiolated ligand in degassed phosphate. The beads were rotated for 21 hours, then washed in 0.1 M phosphate buffer, pH 7, 1×PBS, and stored.
To prepare the globulomer, beta amyloid (1-42) was monomerized with incubation in hexafluoroisopropanol. The hexafluoroisopropanol was removed by vacuum centrifugation. DMSO, PBS, and 2% SDS were then added to the sample. The sample was vortexed and sonicated and then incubated at 37° C. After 6 hours, the sample was diluted with water, vortexed, and incubated at 37° C. for an additional 19 hours. The sample was ultracentrifuged at 135000×g for 1 hour at 4° C., and the supernatant retained. The globulomers were spiked into CSF for the assay.
Aliquots of beads conjugated to various reagents were added to wells of a 96-well plate. Globulomer-spiked CSF in a Tris buffer was added to each well, and the plates were incubated for 1 hour at 37° C. with shaking. For the negative control, normal CSF was used, which is considered to contain only monomers of beta amyloid. The beads were washed with TBST wash buffer, and bound materials were eluted with a denaturing solution (typically 0.1-0.15 N NaOH). A reconditioning buffer was added to the eluate prior to beta amyloid detection via a beta amyloid (1-42) specific sandwich ELISA.
In order to determine the amount of ligand loading, amine quanitation was used. Aliquots of beads were placed in a magnet, and the supernatant removed. 80% phenol in ethanol, 0.2 mM KCN in pyridine/water, and 6% ninhydrin in ethanol was added to each tube. The aliquots were vortexed and heated for 7 minutes at 100° C. After cooling to room temperature, 60% ethanol was added. The tubes were placed in a magnet, and the absorbance of the supernatant at 570 nm was determined. The loading of the beads was determined according to Beer's law, using the extinction coefficient of 15000 M-1 cm-1.
Beads (3 ul or 15 ul) were added to samples containing 0.5 ng/mL globulomer spiked into CSF. […] For PSR1, this limit was ˜5 nmol ligand/mg bead for binding preferentially to globulomer. […]

[3] = biological target: T1, Abeta 1-42 globulomer; test: Globulomer capture assay in CSF (Example 6); type: binding
Experimental: (§1) A series of new potential aggregate-specific binding reagents were designed as shown below and conjugated onto magnetic Dynal M270 beads as described in Example 2. Typically 7-12 nmol of ligand (each candidate aggregate-specific binding reagent) was coated onto 1 mg of beads.
(§2) Aliquots of the beads (typically 3 ul) were added to wells of a 96 well plate, followed by sample (with or without Abeta 1-42 globulomer (an Abeta42 oligomer model) spiked in 80:20 CSF:TBSTT, typically 125 ul). The plate was sealed and incubated for 1 hour at 37° C. with shaking. The plate was washed with aqueous solutions of detergent (typically polyethylene glycol sorbitan monolaurate and n-tetradecyl-N,N-dimethyl-3-ammonio-1-propanesulfonate) to remove ubound material and the residual buffer removed. A denaturing solution (typically 0.1-0.15 N NaOH) was added to each well and the plate heated to 80° C. for 30 min with shaking. After cooling the plate to room temperature, a neutralizing buffer (typically 0.12-0.18 M NaH2PO3 in 0.4% TWEEN20,) was added and the plate was shaken briefly at room temperature. The bead eluate was analyzed using either an Aβ42-specific ELISA or the MSD® 96-Well MULTI-SPOT® Human/Rodent [4G8] Abeta Triplex Ultra-Sensitive Assay from Meso Scale Discovery (Gaithersburg, Md.). For the Aβ42-specific assay, the samples were eluted from the beads and a detection antibody (4G8 HRP) was added to a plate bearing the Aβ42-specific antibody 12F4. The plate was incubated for 1 hour, washed, the substrate was added (SuperSignal West Femto Maximum Sensitivity Substrate from Thermo Fisher, Rockville, Md.), and the luminescence was measured. The MSD plate assay was performed in a similar fashion, according to the manufacturer's protocol.
(§3) In this experiment the preferred number of charges within a given scaffold was identified. An Ala/Lys peptide framework was utilized, where the inclusion of each Lys residue increases the peptides' net charge by +1. Six hexapeptides with increasing charge (+1→+6), AAAKAA, AAKKAA, AAKKKA, AKKKKA, AKKKKK, and KKKKKK, were prepared and conjugated on the beads. The ability of these beads to capture Abeta 1-42 globulomer spiked at 1 ng/mL into CSF was tested, and the result is shown in FIG. 25. The globulomer capture level (“42 1 ng/ml” or the closed bars) was compared to the background signal of Abeta 1-42 detected in the unspiked CSF (“42 0 ng/ml”) and the background signal of Abeta 1-40 detected in unspiked CSF (“40 0 ng/ml”) or CSF spiked with AB42 oligomers “40 1 ng/ml”. The charge density, as conjugated to the magnetic beads, of each reagent evaluated in this experiment is shown below in Table 8.

[4] = biological target: T3, Abeta 1-40 monomer (Homo sapiens, UniProt P05067); test: Globulomer capture assay in CSF (Example 6): Abeta 1-40 noise; type: binding; conditions: Abeta 1-40 signal (noise), CSF samples
T3 construct: Abeta 1-40 monomer capture level; from tissue; host or cells: cerebrospinal fluid (matrix of the assay)
Experimental: as §1, §2, §3

[5] = biological target: PrP^Sc (Mesocricetus auratus, UniProt P04273)
Chain of PrP^Sc (P04273 23-231 limits assumed): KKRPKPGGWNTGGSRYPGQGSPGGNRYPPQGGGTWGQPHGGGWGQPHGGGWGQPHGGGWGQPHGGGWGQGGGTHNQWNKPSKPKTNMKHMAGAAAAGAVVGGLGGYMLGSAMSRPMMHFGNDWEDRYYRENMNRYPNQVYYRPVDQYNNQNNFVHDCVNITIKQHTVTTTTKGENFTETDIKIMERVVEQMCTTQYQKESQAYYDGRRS

[6] = biological target: T4, Aβ(1-42) aggregates (Homo sapiens, UniProt P05067); type: binding
T4 construct: For Aβ(1-42), 10 nL of 10% brain homogenate was added to each well; from tissue; host or cells: Alzheimer's disease patient brain homogenate

[7] = test system: tau aggregates; type: binding, human
[8] = biological target: Abeta 42 globulomer (Homo sapiens, UniProt P05067); test: NMPA with detergent washing after PSR1 pulldown: globulomer detection; type: binding
[9] = biological target: T5, normal CSF Aβ42 (Homo sapiens, UniProt P05067); test: NMPA with detergent washing: background from unspiked CSF, Abeta42; type: binding; conditions: CSF; PSR1 beads treated with detergent post capture
T5 construct: reduced the detection of normal CSF Aβ42 to the background levels; from tissue; host or cells: pooled normal cerebrospinal fluid
Experimental: Second, two neutral detergents, polyethylene glycol sorbitan monolaurate (available as TWEEN 20 from Sigma-Aldrich, St. Louis, Mo.) and n-tetradecyl-N,N-dimethyl-3-ammonio-1-propanesulfonate (available as ZWITTERGENT 3-14 from EMI) Chemicals, Gibbstown, N.J.) were used to treat the globulomer-spiked CSF samples that had been contacted with PSR1 beads. For each assay, a mixture of 30 μl of PSR1 beads (coated at about 7-12 nmol PSR1 ligand/mg DYNAL beads, which were used in this example and in the following examples unless otherwise stated) and 70 μl of 1×TBSTT was immediately pipetted into each well on the pulldown plate. The liquid was removed on a magnetic separator. Fifty micro liters of 5×TBSTT was added to each well. The beads were suspended by briefly shaking at 750 rpm. Next […] of TBSTT or CSF sample without globulomer was added to each well. The pulldown plate was sealed and incubated at 37° C. for 1 hour with shaking at 500 rpm. After incubation, the beads were washed 8 times with TBST on the plate washer. After the plate wash, residual TBST buffer was removed from the beads on the magnetic separator. The beads were then incubated with 100 μl of either TBS, 1% Tween20 or 1% Zwittergent 3-14 for 30 minutes at room temperature at 750 rpm, (followed by an additional 8 washes with TBST on the plate washer. After removing residual TBST on the magnetic separator, 20 μl of denaturing solution, typically 0.1-0.15 N NaOH, was added to the beads. The plate was covered with an aluminum foil plate sealer and incubated at 80° C. for 30 minutes with shaking at 750 rpm. After incubation, the plate was cooled to room temperature and twenty micro liters of neutralizing solution, typically 0.12-0.18 M NaH2PO4+0.4% Tween20) was added into each well and the plate was incubated at room temperature for 5 minutes with shaking at 750 rpm. […] MSD Abeta Triplex Assay was preformed according to the manufacturer's instructions.
A summary of the assay results and calculated signal/noise is shown below in Table 17.

[10] = biological target: T6, Aβ40 aggregates in AD CSF (Homo sapiens, UniProt P05067); test: Discrimination between AD and normal CSF; type: binding; conditions: AD CSF; detergent wash; data not shown
T6 construct: from tissue; host or cells: pooled cerebrospinal fluid (normal or AD)
Experimental: The Ab42 aggregates were prepared as previously described: fibrils were prepared per Stine et al (JBC 2003, 278, p11612), globulomers were prepared per Barghorn et al (J Neurology 2005 95 p834), ADDLs were prepared per Lambert et al (PNAS 1998, 95 p6448), and ASPDs were prepared per Noguchi et al (JBC 2009 284 p32895). Normal CSF was pooled from clinically characterized non-demented patient CSF samples. AD CSF was pooled from clinically-characterized AD patient samples. Alzheimer's Disease Brain Homogenate (ADBH) was prepared by sonication of clinically diagnosed AD patient brain samples in 0.2M.sucrose (1:10 w/v).
For the capture assay (Misfolded Protein Assay), aliquots of the beads (30 ul) were added to wells of a 96 well plate, followed by 125 ul of sample in 80:20 CSF:TBSTT. The plate was sealed and incubated for 1 h at 37 C with shaking. The plate was washed with TBST and the residual buffer removed. A denaturing solution (0.1 N NaOH) was added to each well and the plate heated to 80 C. for 30 min with shaking. After cooling the plate to RT, a neutralizing buffer (0.12 M NaH2PO3-0.4% TW20,) was added and the plate shaken briefly at RT. The assay was analyzed using the triplex Mesoscale Discovery ELISA kit for Aβ. The Aβ in the samples eluted from the beads were detected per the manufacturer's protocol.
For discriminating between AD and normal CSF, pooled normal CSF or pooled Alzheimer's Disease patient CSF, were assayed per the protocol described above.

For AKFKKK, which globulomer capture [1] is on record?
The globulomer capture was “improved globulomer capture relative to nonaromatic residues”.

With DDDDDD as the substance, how does the “capture of oligomers (relative light units from the Abeta ELISA)” value [2] read?
Its value is “little enrichment of the oligomeric species”.

For FKFKKK, which globulomer capture ([3]; Abeta42 globulomer spiked into CSF, reagents on beads) is on record?
The globulomer capture was “captured globulomers specifically”.

And the globulomer capture [1]?
Its globulomer capture is “improved globulomer capture relative to nonaromatic residues”.

For HHHHHH, which “capture of oligomers (relative light units from the Abeta ELISA)” value [2] is on record?
The value was “little enrichment of the oligomeric species”.

What does the source list for KKKKKK?
capture of oligomers (relative light units from the Abeta ELISA) [2]: significant capture; 42:40 (signal:noise ratio) ([3]; 1 ng/ml average reading, ratio of 42 to 40): 3.3; 42, 1 ng/ml average reading ([3]; Abeta 1-42 globulomer spiked at 1 ng/mL into CSF): 658 RLUs; 40, 1 ng/ml average reading [4]: 197 RLUs

For KKKWKW, which “capture of oligomers (relative light units from the Abeta ELISA)” value [2] is on record?
The value was “increased capture efficiency relative to the corresponding peptides with aliphatic hydrophobic residues or no hydrophobic residues”.

With Nab-Nab-Nab-Nab-Nab-Nab [++++++] as the substance, how does the “PrP^Sc capture signal” value [5] read?
Its value is “Signal was observed with the 100 or 300 ng/mL spike levels”.

Which results are given for Nab-Nab-Nab-Nab-Nab-Nab-Nab [+++++++]?
limit of detection for Aβ(1-42) capture [6]: 1.6 mL/assay and 2.5 mL/assay; total Tau signal, AD vs normal brain homogenate [7]: higher signals in the AD samples relative to the normal brain homogenates

How did the “signal/noise of globulomer detection” value [8] turn out when “n-Hexadecyl-N,N-dimethyl-3-ammonio-1-propanesulfonate [ZW3-16]” was run?
Its value is “improved the signal/noise ratio for Abeta 42 globulomer detection more significantly”.

What about the “S/N Abeta 42 globulomer-spiked/unspiked” value ([8]; 0.5 ng/mL vs 0 ng/mL globulomer) of the same substance?
Its value is 10.9.

What about the “S/N Abeta 42 globulomer-spiked/Abeta 40” value ([8]; Abeta 42 RLU at 0.5 ng/mL over average Abeta 40 RLU) of the same substance?
Its value is 3.7.

What about the “Abeta 42 RLU, 0.5 ng/mL Abeta 42 globulomer, Average” value ([8]; CSF, PSR1 beads treated with detergent post capture) of the same substance?
The value was 730.7 RLU.

What about the “Abeta 42 RLU, 0 ng/mL Abeta 42 globulomer, Average” value [9] of the same substance?
The value was 67.0 RLU.

And the “Abeta 40 aggregates capture S/N” value [10]?
The value was “improved Abeta 40 aggregates capture S/N even more significantly in AD CSF”.
